This note sets out measurements from publication PMC11231100 (2024).

The target in assay [1] is T1, CD47 (human (endogenous in Jurkat and Reh), UniProt Q08722 19-323). In words: FACS; competition with SIRPα-mFc on Reh cells (CD38high/CD47+). (A flow cytometer gives signals particle by particle.)
The target of assay [2] is T1, CD47. In words: FACS; competition with SIRPα-mFc on Jurkat cells (CD38low/CD47+).

B1: IMM01 (SIRPα Fc fusion protein) (Fc fusion)
chain: EEELQVIQPDKSVLVAAGETATLRCTATSLIPVGPIQWFRGAGPGRELIYNQKEGHFPRVTTVSDLTKRNNMDFSIRIGNITPADAGTYYCVKFRKGSPDDVEFKSGAGTELSVRAKP
modifications: SIRPα IgV domain (SD1), limits by convention (complete V domain through its last strand, just before the first C1 domain); dimeric through an Fc that is left out; allelic variant and any engineered substitution not given
For orientation: IC50 means the concentration needed to halve the response being measured. A low value points to greater potency. In the case of B1, the values for the IC50 in assay [1] and in assay [2] were 0.216 µg/mL and 0.0977 µg/mL, respectively.
